Target: human TIGIT-Fc (human) (UniProt Q495A1)
Experiment: CD155 competition ELISA, single point

Chain of human TIGIT-Fc (human) (Q495A1 22-141 limits assumed): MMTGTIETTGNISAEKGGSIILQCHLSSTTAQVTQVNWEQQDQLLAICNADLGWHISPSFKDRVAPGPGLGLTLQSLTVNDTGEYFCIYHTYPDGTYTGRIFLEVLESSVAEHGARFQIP

OD (450 nm): 0.8 OD
B1: TIGIT-SC153 (Fc fusion)
VHH: EVQLVESGGGLVQPGGSLRLSCAASGNTFSGGFMGWFRQAPGKEREWVASVLRGGYTWYADSVKGRFTISADNSKNTAYLQMNSLKPEDTAVYYCARAGGCSGTSCYDGWFDPWGQGTLVTVSS
